In article PMC11077437, “Scrutiny of chimeric antigen receptor activation by the extracellular domain: experience with single domain antibodies targeting multiple myeloma cells highlights the need for case-by-case optimization” (Frontiers in Immunology, 2024):
Changes are numbered by the printed parent chain.

B1: VHH-79 (VHH)
VHH: QVQLQESGGGLVQPGGSLRLSCAASGSIFSILAMAWYRQAPGKQRELVASITNGGSTNYADSVKGRFTISRDNDKNTVYLLMNSLKPEDTAVYYCNPRPMPWGTYDYWGQGTQVTVSS
notes: source: E. coli WK6 periplasm, purified (IMAC, SEC); not shown: His6, C-terminal, kept
B2: VHH-78 (VHH)
VHH: QVQLQESGGGLVQPGGSLRLSCAASGSIFSILAMGWYRQAPGKQRELVASVTNGGSTNYADSVKGRFTISRDNAKNTVYLQMNSLKPEDTAVYYCNVRPYSDYDSWGHGTQVTVSS
notes: as for B1
B3: VHH-63 (VHH)
VHH: DVQLVESGGGLVQPGGSLRLSCTVSGLTFSDYDMSWVRQAPGKGPEWVSFINTGGGSTYYDDSVKGRFTISRDNAKNTLYLQMDSLKPEDTALYYCARGDPYSDPKYWGQGTQVTVSS
notes: 99mTc-labelled on the His tag for the in vivo experiment; source: E. coli WK6 periplasm, purified (IMAC, SEC); not shown: His6, C-terminal, kept
B4: VHH-17 (VHH)
VHH: DVQLVESGGGLVQPGDSLRLSCTASGFTFSNYPMSWVRQAPGKGPEWISHINTGGGSTYYADSVKGRFTISRDNAKNTLYLQMNSLKPEDTALYYCARGDPFKYSGSYLRGQGTQVTVSS
notes: as for B3
B5: VHH-6 (VHH)
VHH: DVQLVESGGGLVQAGGSLRLSCAASGRTFEDYFMAWFRQIPGKEREFVAAVGWNTGRGYYTDSVKGRFTISRDSAKNTLYLQMDSLKPEDTAVYYCNAPLQSLDRRLPGPYWGQGTQVTVSS
notes: as for B3
B6: VHH-73 (VHH)
VHH: DVQLVESGGGMVQSGGSLRLSCAASGFTFSSYDMSWVRQAPGKGPEWVSTINTGGSSTYYDDSVKGRFTISRDNAKNTLYLQMNSLKPEDTALYYCARGGPYSRDYWGQGTQVTVSS
notes: as for B3
B7: VHH-29 (VHH)
VHH: DVQLVESGGGLVQPGGSLRLSCAASGFTFSSYAMSWVRQAPGKGPEWVSHINTGGGSTYYDDSVKGRFTISRDNAKNTLYLQMNSLKPEDTALYYCARGDPFDEYRYWGQGTQVTVSS
notes: as for B3
B8: VHH-65 (VHH)
VHH: B7 VHH with L11M, P14S, A33D, H50Y, P88A, D103Q, E104R, Y105P, R106K
notes: as for B1
B9: VHH-51 (VHH)
VHH: B7 VHH with L11M, A33D, Q39L, H50Y, P88A, D103Q, E104R, Y105P, R106K
notes: as for B1
B10: VHH-56 (Table 1, the row between 53 and 57) (VHH)
VHH: B7 VHH with A33G, D61A, F102W, D103G, E104H, Y105D, R106P, Y107S
notes: this is the second; source: E. coli WK6 periplasm, purified (IMAC, SEC); not shown: His6, C-terminal, kept
B11: VHH-71 (VHH)
VHH: B3 VHH with L11M, T23A, V24A, L27F, D31S, D84N
notes: as for B3
B12: VHH-57 (VHH)
VHH: B7 VHH with L11M, A33G, D61A, F102W, D103G, E104H, Y105D, R106P, Y107S
notes: as for B3
B13: VHH-22 (VHH)
VHH: B7 VHH with A33D, N52T, Y59H, E104S, Y105S, Y107D
notes: as for B1
B14: VHH-24 (VHH)
VHH: B7 VHH with L11M, A33D, N52T, Y59H, E104S, Y105S, Y107D
notes: as for B1
B15: VHH-28 (VHH)
VHH: B7 VHH with F29L, S30D, S31D, H50Y, P88A, D103Q, E104R, Y105P, R106K
notes: as for B1
B16: VHH-53 (VHH)
VHH: B7 VHH with L11M, A33D, H50Y, P88A, D103Q, E104R, Y105P, R106K
notes: as for B3
B17: VHH-61 (VHH)
VHH: DVQLVESGGGMVQPGGSLRLSCAASGFTFSSYGMSWVRQAPGKGPEWVSYINVGGGSTYYDDSVKGRFTISRDNAKNTLYLQMNSLKPEDTALYYCARGDPYSDHPQRTWGQGTQVTVSS
notes: as for B3

These binders were tested against T1, human CS1 on CS1pos OPM2 multiple myeloma cells (Homo sapiens, OPM2 myeloma cells, UniProt Q9NQ25) (assay: flow cytometry on cells; purified VHH at 200 nM, 1 h at 4°C, on CS1pos OPM2 cells; detected by mouse anti-His IgG1 mAb and APC anti-mouse IgG1 mAb; ΔMFI against the non-targeting control VHH R3B23 at 200 nM; n=1). Conditions: one partner purified.
T1 construct: CS1 (SLAMF7, CD319), human, as expressed on OPM2 cells; also called cell-expressed CS1; huCS1; source: on CS1pos OPM2 cells (ATCC)

binding result	Binder
no binding (tested: 200 nM)	B1
no binding (tested: 200 nM)	B2

Each binder was assayed against T2, recombinant murine CS1 protein (CS1-(his)C) (Mus musculus, strain , UniProt Q8BHK6) (assay: SPR; follow-up SPR on plate-coated muCS1 (Supplementary Figure 1)). Conditions: both partners purified.
T2 construct: CS1 (SLAMF7), murine, the extracellular portion; also called muCS1; source: HEK293-E 253 cells, transiently transfected, purified from the supernatant (IMAC, SEC) by U Protein Express
T2 sequence (Q8BHK6 23-224): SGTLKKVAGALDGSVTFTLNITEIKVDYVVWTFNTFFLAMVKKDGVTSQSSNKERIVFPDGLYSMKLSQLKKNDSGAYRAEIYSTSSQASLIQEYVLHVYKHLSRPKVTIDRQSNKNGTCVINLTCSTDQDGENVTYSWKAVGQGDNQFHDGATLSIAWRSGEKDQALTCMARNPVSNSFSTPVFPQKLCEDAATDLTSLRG

binding result	Binder
binds	B1
binds	B2

Molecular target: T1, human CS1 on CS1pos OPM2 multiple …
Experiment: flow cytometry on cells; purified VHH at 200 nM, 1 h at 4°C, on CS1pos OPM2 cells; detected by mouse anti-His IgG1 mAb and APC anti-mouse IgG1 mAb; ΔMFI against the non-targeting control VHH R3B23 at 200 nM; n=1
Conditions: one partner purified
Remark: another data set of the same source

ΔMFI [VHH] = 200 nM	Binder
3.37	B3
13	B4
101	B5
1.35	B6
29.4	B7
11.4	B8
14.3	B9
4.72	B10
11.2	B11
4.8	B12
7.29	B13
20.6	B14
6.58	B15
22.1	B16
10.3	B17

Each binder was assayed against T1, human CS1 on CS1pos OPM2 multiple … (assay: cell-based or functional assay). Conditions: not given.

tumor uptake of the 99mTc-labelled VHH in subcutaneous CS1pos OPM2 tumors in mice, ex vivo at 90 min p.i. (n=3)	Binder
1.03 % IA/g	B3
1.05 % IA/g	B4
6.29 % IA/g	B5
0.52 % IA/g	B6
4.75 % IA/g	B7
4.02 % IA/g	B11
0.85 % IA/g	B12
7.5 % IA/g	B16
6.57 % IA/g	B17

What follows are binders tested against T3, recombinant human CS1 protein (CS1-(his)C) (Homo sapiens, UniProt Q9NQ25) (assay: SPR; Biacore T200; recombinant CS1 amine-coupled on a CM5 chip; VHH 100 nM to 3.125 nM in HBS pH 7.4, 25°C; association 180 s, dissociation 300 s; fit '1:1 binding with drift and RI2'; n=1). Conditions: both partners purified.
T3 construct: CS1 (SLAMF7, CD319), human, the extracellular portion; also called huCS1; SLAMF7; source: HEK293-E 253 cells, transiently transfected, purified from the supernatant (IMAC, SEC) by U Protein Express

Kd	koff	kon	Binder
9.8 nM	0.0019 s⁻¹	190000 M⁻¹ s⁻¹	B3
3.8 nM	0.00079 s⁻¹	210000 M⁻¹ s⁻¹	B5
35.8 nM	0.00254 s⁻¹	74400 M⁻¹ s⁻¹	B6
1.6 nM	0.00024 s⁻¹	150000 M⁻¹ s⁻¹	B7
2.32 nM	0.000979 s⁻¹	423000 M⁻¹ s⁻¹	B8
0.6 nM	0.00029 s⁻¹	490000 M⁻¹ s⁻¹	B9
36.1 nM	0.01 s⁻¹	279000 M⁻¹ s⁻¹	B10
4.29 nM	0.0016 s⁻¹	372000 M⁻¹ s⁻¹	B11
24.7 nM	0.0085 s⁻¹	350000 M⁻¹ s⁻¹	B12
4 nM	0.00048 s⁻¹	120000 M⁻¹ s⁻¹	B13
4.7 nM	0.00047 s⁻¹	100000 M⁻¹ s⁻¹	B14
1.2 nM	0.00025 s⁻¹	210000 M⁻¹ s⁻¹	B15
0.81 nM	0.0003 s⁻¹	370000 M⁻¹ s⁻¹	B16
0.33 nM	8.1e-05 s⁻¹	250000 M⁻¹ s⁻¹	B17

What follows are binders tested against T4, murine CS1 on muCS1pos 5T33vt cells (Mus musculus, 5T33vt myeloma cells, UniProt Q8BHK6) (assay: flow cytometry on cells; VHH on muCS1pos 5T33vt cells (Supplementary Figure 2)). Conditions: one partner purified.
T4 construct: CS1 (SLAMF7), murine, as expressed on 5T33vt cells; source: on murine CS1pos 5T33vt cells
T4 sequence (Q8BHK6 23-333): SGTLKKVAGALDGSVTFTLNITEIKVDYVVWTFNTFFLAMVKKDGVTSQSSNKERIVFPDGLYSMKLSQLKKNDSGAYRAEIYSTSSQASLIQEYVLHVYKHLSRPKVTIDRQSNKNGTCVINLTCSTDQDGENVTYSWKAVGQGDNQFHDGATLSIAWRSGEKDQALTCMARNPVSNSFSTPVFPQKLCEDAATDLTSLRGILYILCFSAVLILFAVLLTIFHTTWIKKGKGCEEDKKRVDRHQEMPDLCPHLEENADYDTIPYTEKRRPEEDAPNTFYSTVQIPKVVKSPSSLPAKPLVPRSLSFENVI

binding result	Binder
binds	B1
binds	B2

Molecular target: T3, recombinant human CS1 protein …
Experiment: SPR; Biacore T200; recombinant CS1 amine-coupled on a CM5 chip; VHH 100 nM to 3.125 nM in HBS pH 7.4, 25°C; association 180 s, dissociation 300 s; fit '1:1 binding with drift and RI2'; n=1
Conditions: both partners purified
Remark: another data set of the same source

binding result	Binder
no binding (tested: 100 nM)	B1
no binding (tested: 100 nM)	B2
